According to the supplement of paper PMC10126150:
± gives the standard deviation of the averaged measurements.

system: ATP; assay: switch fluorescence ratio, 500 uM ATP over buffer (Cy3 cluster intensity, sum of 5 cycles each) (fold (ratio)); higher = stronger signal-on switching upon ATP binding; sequences stand for … in TCGTCGGCAGCGTCAGATGTGTATAAGAGACAGTTTTTTTTTTTTTTTTTTTTTTTTT…TC; conditions: aptamer strand: ATP DNA aptamer (quencher-CACCTGGGGGAGTATTGCGGAGGAAGG + anchor), 100 nM annealed; ATP concentration: 500 uM
How it was run: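 Clusters with intensities outside 100-1000 RFU were excluded. The remaining Cy3-labelled switching-strand clusters on a modified Illumina MiSeq flow-cell had been annealed to 100 nM quencher-labelled ATP aptamer and imaged in selection buffer, then after 15 min with 500 uM ATP at 22 °C, for five cycles separated by NaOH stripping and re-annealing. The fluorescence ratio, averaged per switch-domain sequence, is each cluster's summed target-cycle Cy3 intensity over its summed buffer-cycle Cy3 intensity.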
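Note: ATP exposure 15 min at 22 °C before imaging.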

| Sequence | switch fluorescence ratio |
| --- | --- |
| TATAAAGGGC | 1.01 ± 0.054 |
| TATTTGGGTT | 1.07 ± 0.082 |
| ACGGGGTTGT | 1 ± 0.024 |
| GGGGTTCAAA | 0.997 ± 0.016 |
| TGTGGGGGGC | 1 ± 0.038 |
| TTGGCCGTAC | 1.03 ± 0.029 |
| ATCCTTGATA | 1.03 ± 0.016 |
| AGTTCGTGGG | 0.973 ± 0.013 |
| AATTTTATCG | 0.9741 ± 0.0085 |
| TATGCAGCG | 1.001 ± 0.0024 |
| ATTGATAGGG | 1.03 ± 0.037 |
| GGGGACTGCA | 1.03 ± 0.049 |
| ACAGGGCTAT | 1.02 ± 0.014 |
| ACAGGTTGAA | 0.996 ± 0.036 |
| CTAGTTTTTG | 0.997 ± 0.049 |
| TCGTTCAATC | 1.314 ± 0.01 |
| AGCAACCCCG | 1.22 ± 0.17 |
| GAATCAGTGT | 1 ± 0.022 |
| GCAGGTGTGC | 1.13 ± 0.082 |
| ACTTTGGCCC | 1.005 ± 1.1e-05 |
| TGTTAAAAAA | 1.01 ± 0.02 |
| CGGTGGCATA | 1.04 ± 0.018 |
| GCTCTCATAT | 1.027 ± 0.0086 |
| TACGAGCGAA | 1.34 ± 0.014 |
| TCGGGTAAGT | 1.01 ± 0.077 |

| Sequence | switch fluorescence ratio |
| --- | --- |
| TTTGGGTAGT | 1.04 ± 0.034 |
| GGGGGAGATT | 0.977 ± 0.02 |
| AGGGCTTTTA | 1 ± 0.013 |
| GTTATTGGGA | 0.99 ± 0.051 |
| CTTGAAGATG | 0.973 ± 0.065 |
| TCCGAGGCCA | 3.91 ± 3.2 |
| CGTGTTTCGG | 0.97715 ± 0.00018 |
| CCTTAATTTT | 1.01 ± 0.019 |
| TCATGATATG | 0.978 ± 0.027 |
| TAGGAGAGGG | 0.968 ± 0.034 |
| GGGTGTAGCC | 1.04 ± 0.037 |
| GGCTAGTGAC | 1 ± 0.03 |
| TGACATTTGT | 0.965 ± 0.048 |
| CGGGGGACGG | 0.982 ± 0.029 |
| AATCCTTTTT | 1.004 ± 0.0084 |
| GGGGGGAGG | 1.1 ± 0.13 |
| TCGATACATG | 0.993 ± 0.034 |
| TTTTTGGCAA | 2.35 ± 2.2 |
| TTGTGACGGG | 1 ± 0.023 |
| AAAAGGAGTT | 0.998 ± 0.016 |
| TGTTTGGGCC | 1.03 ± 0.011 |
| AGATGGATTT | 0.963 ± 0.0091 |
| AATGAAAAAT | 0.989 ± 0.067 |
| CTTTTTTTTG | 0.993 ± 0.017 |
| TGATGGTAGG | 0.981 ± 0.031 |

| Sequence | switch fluorescence ratio |
| --- | --- |
| GCGTTGTTTG | 0.958 ± 0.042 |
| ATCGCGGGGT | 0.979 ± 0.025 |
| AGGGGGGTT | 1.01 ± 0.06 |
| CCGGTGCGGC | 1.48 ± 0.23 |
| TTCACCCGGT | 1.11 ± 0.12 |
| ATTGATGTA | 1.0136 ± 0.00015 |
| GGGGCGTAGG | 1 ± 0.033 |
| GTCAAAAAGT | 0.985 ± 0.028 |
| GCTGAATAAT | 1.01 ± 0.029 |
| GTTTGTCAGC | 1.01 ± 0.024 |
| ATTTATAGAT | 0.979 ± 0.028 |
| TCTTCTGGCT | 1.02 ± 0.019 |
| TTATTATATG | 0.971 ± 0.022 |
| AGCGAGTGTG | 1 ± 0.026 |
| TTTGATGTGC | 1.07 ± 0.064 |
| TTATAGTTGG | 0.98 ± 0.023 |
| TATTTTGGTC | 1.025 ± 0.0078 |
| TTAAATACGT | 1.06 ± 0.049 |
| GGTCGGGGGG | 1.03 ± 0.037 |
| AAAAGCAGGG | 1 ± 0.014 |
| ATTTGGGCTG | 0.999 ± 0.015 |
| TGTTAAATGA | 0.97 ± 0.013 |
| ATTAAATTAG | 1.04 ± 0.051 |
| GTTGGGAGTC | 1.01 ± 0.012 |
| GGTGTATAGG | 1.01 ± 0.011 |

| Sequence | switch fluorescence ratio |
| --- | --- |
| TTGGAAGCTT | 1.23 ± 0.22 |
| GGCCTTTATT | 1.01 ± 0.031 |
| AAGGAGTTTT | 0.973 ± 0.034 |
| TGGTTCGCTA | 1.02 ± 0.013 |
| TATGATGGTG | 1.04 ± 0.035 |
| GTGATGCTTG | 0.998 ± 0.037 |
| TTATAATATT | 1.03 ± 0.025 |
| TATAAGGGGC | 0.997 ± 0.027 |
| GATCTTAGGT | 0.996 ± 0.041 |
| ACAACGGAAG | 1.03 ± 0.035 |
| GCGGGATTGG | 1.001 ± 0.0077 |
| CTATTTGACT | 0.9576 ± 0.0028 |
| GGGAGAGAAT | 1.005 ± 0.0058 |
| GGGGTAGGCG | 0.959 ± 0.051 |
| GTGGTCGGCA | 0.996 ± 0.011 |
| GAGAGCGGGG | 0.968 ± 0.033 |
| CGGGTATATT | 1.01 ± 0.032 |
| GGGGGTATCG | 0.967 ± 0.021 |
| GGGGTTTGAA | 0.984 ± 0.016 |
| CGTACCATCC | 1.6 ± 0.18 |
| TTACGGGCTA | 0.9975 ± 0.0081 |
| GGTCTGGGTG | 1.08 ± 0.066 |
| GGGGAGTTAT | 1.01 ± 0.0024 |
| TGAGAGGAGT | 0.9911 ± 0.0013 |
| TGGGGAATCG | 1.01 ± 0.046 |
